# Laboratory results as given in patent US20260374864 (published 2026).
# Target: human CD22, His-tagged recombinant (human, UniProt P20273)
# Assay: SPR
# human CD22, His-tagged recombinant, sequence (P20273 20-687): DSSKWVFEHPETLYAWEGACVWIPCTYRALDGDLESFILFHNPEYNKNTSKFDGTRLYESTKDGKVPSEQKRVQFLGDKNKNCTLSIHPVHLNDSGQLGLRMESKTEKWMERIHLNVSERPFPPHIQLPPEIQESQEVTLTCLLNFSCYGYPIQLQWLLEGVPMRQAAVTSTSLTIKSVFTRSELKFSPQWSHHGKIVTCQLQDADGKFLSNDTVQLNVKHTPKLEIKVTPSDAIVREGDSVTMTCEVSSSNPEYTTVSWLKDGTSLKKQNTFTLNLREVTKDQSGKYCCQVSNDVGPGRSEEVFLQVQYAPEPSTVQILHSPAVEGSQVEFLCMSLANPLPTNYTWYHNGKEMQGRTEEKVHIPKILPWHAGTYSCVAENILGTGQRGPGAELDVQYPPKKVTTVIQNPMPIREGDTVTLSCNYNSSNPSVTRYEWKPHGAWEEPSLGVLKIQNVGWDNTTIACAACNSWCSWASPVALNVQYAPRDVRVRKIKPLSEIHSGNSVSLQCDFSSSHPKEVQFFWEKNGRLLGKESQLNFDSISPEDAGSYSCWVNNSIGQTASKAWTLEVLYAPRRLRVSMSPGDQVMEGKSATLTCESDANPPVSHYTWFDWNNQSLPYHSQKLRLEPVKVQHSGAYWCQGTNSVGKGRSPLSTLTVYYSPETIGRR
row,Binder,Kd
1,"CD22-mAb-1 (antibody, V domains shown) VH: QVQLVQSGAEVKKPGASVKVSCKASGYTFTGYYIHWVRQAPGQGLEWMGWINPNSGGTNYAQKFQGRVTMTRDTSIGTAYMELSRLRSDDTAIYYCTREDTWNYIDYWGQGTLVTVSS VL: DIQMTQSPSSLSASVGDRVTITCRASQSISSHLNWYQQKPGKAPKLLIYAASSLHSGVPSRFSGSGSGTDFTLTISSLQPEDFATYCCQQSYSTPRTFGQGTKVEIK",0.0377 nM
2,"CD22-mAb-4 (antibody, V domains shown) VH: QVQLVESGGGVVQPGRSLRLSCAASGFTFSSYGMHWVRQAPGKGLEWVAIIYYDGSKKYYADSVKGRFTISRDNSKNTLYLQMNSLRAEDTAVYYCARELTGDAFDIWGQGTKVTVSS VL: EIVLTQSPDFQSVTPKEKVTITCRASQSIGSSLHWYQQKPDQSPKLLIKYASQSFSGVPSKFIGSGSGTDFTLTINSLEAEDAATFYCHQSSTLPYTFGQGTKLEIK",2.59 nM

# Continued by falling Kd, values first:
row,Kd,Binder
1,1.7 nM,"CD22-mAb-3 (antibody, V domains shown) VH: QVTLRESGPALVKTTQTLTLTCTFSGFSLSTSGMCVSWIRQPPGKALEWLALIDWDDDKYYSTSLKTRLTISKDTSKSQVVLTMTSMDPVDTATYYCARIRYIYGYDYFDYWGQGTLVTVSS VL: DIQMTQSPSSLSASVGDRVTITCRASQRISSQLNWYQQKPGKAPKLLIYAASSLQSGVPSRFSGSGSGTEFTLTISSLQPEDIATYCCQQTYSKPITFGQGTRLEIK"
2,0.358 nM,"CD22-mAb-2 (antibody, V domains shown) VH: QVTLRESGPALVKPTQTLTLTCTFSGISLTTSGMCVSWIRQPPGKALEWLALIDWDGDNYYSTSLKTRLTISKDTSKNQVVLTMASMDPVDTATYYCARMGYTYGYDAFDIWGQGTMVTVSS VL: EIVLTQSPEFQSVTPTEKVTITCRASQSIGSLLHWYQQKPDQSPKLLIKFASQSLSGVPSRFSGSGSGTDFTLTINSLEAEDAATYYCHQSRSLPFTFGPGTKVDIN"
